The DeepSol protein solubility set

experiment: soluble on expression in E. coli; label from the status in PepcDB or PDB records

Row | Sequence | soluble on expression in E. coli
1 | MGAYLNKPIIEKEKEEGSGNGLSYACTTMQGWRVNQEDAHNCVVDLHTDWHMFGVYDGHGGTEVSKFTSAKLPDFLKERKFWEADDVAECLQKAFVDFDDFIRAEESMKELKDIGDEGKPKKAGGEADSEDEADRIDTIEEASVPLAELLKRYGGAGVGKSLLSAFLAKGDVSDDSEDEDEDEEEAEEQDDTEEKKENEDASAEVVIENAEDKEEEEGSPKKKGQKRCQKSPIQSEAKKSKSETDAETAPSSSSGVDGVATEEEDEDDSDKEFVADEEEDDEDAEDEQSDEEMVDGSLAPLLLGSGGAEVPGEDSGTTACVCLVGKDKVIVANAGDSRAVLCRNGKAVDLSVDHKPEDEVETNRIHAAGGQIEDGRVNGGLNLSRAFGDHAYKKNQELGLKEQMITALPDVKIEALTPEDEFIVVACDGIWNSMESQQVVDFVRDLLAKGSSCAEVCDALCDACLADSTDGDGTGCDNMTVICTTFDRKSK | not soluble
2 | MSLDLKQVLRATMVKGVLQRGTIALGNDPGVLRIYTRAACPGTLAKNYLGEWCFASKVAEEASPRVHVVGDIHGNIEALFKVLIRTKLFILDEPMSNESYEGYEDPEEPFSVKGWGVHPRYAVEGTQKYIVKDYDHIYLFLGDYVDRGSFSIECLVVLLGLKILFPNAVYLLRGNHETRACLQRGQLFQELIHKYEYVEASKITDRLLRLFDALPTCALINDYVFAVHAGIYSKNASLADIEKYCTKRAPCSKFHTKAPYFDPLHNMLWADFVEDQPAIDLSQDNRRRNTGIVFYPSTVKEFLKNEGLGLFIRGHQSTPFGVSISQTGKLVTVSINSDSTPTWLGAVLTLVHPADADASESISPVNLASEGHHHHHH | not soluble
3 | MAHHHHHHMKRGNEVAREMWAPSTWEQRMSLAGQFTTFCRTHEQPINEESRAALLVAILDVAPPTRPQHARMLRSMLEMNRTPLGMAILGLQKLAARSETRQARSLTKEGMDQFIRSRIDWNQRVVFRLACMTASRWSGIAALTPNNATLEADGTIILDWSVAPKTARADPHRAPRFVGIRGRDALDTITLCRTLQENEKLTNVTNAKVERALAPWDATAHSIKRGALRHAAQIVETCNLDPHVISQLAKHVDPFVLPQNTVRYFWKYTTVLTQVLPLVVLM | not soluble
4 | MHPSLRYIQGYPQNIVEQVSSLVDNGKLIPWFEKRYPDRHQIKSEKALYEYAIAIKNRYMKKASPISKVVYDKKIHAVNNALGLHSVISRNHGGKLKSKNEIRIANVFKDAPEALLRMLVVHELAHTREKNHDKAFYQLCCYMEPEYHQLELDARLFMIYLDLKANSNEEQLEHHHHHH | soluble
5 | TLDYNIQQQAYNLLGDNKGSVVVLNPKTGEILAMVSKPSYDPNDDALKASWAALNSNPDRPLLNRAVSGLYPPGSTFKTVTAISALENISGIQNETFNDPGQLVFNSTESLRDFGGESFGDIGFKHAYVVSSNVVFGKIGLQLGNNNLRQTAESFYFNKNIPCDGIVIDKSKFPTLKSYEKGNMAQSAIGQASVLATPIQMALVASTVANDGVMMKPHVVNEILSPNGDKIKSIEPESIGNIVSKENAATMKDFMRNVVEDGTGVNAAVEGIQVAGKTGTADHKVNGKDATPHSWFIGFAPYDNPQVAIAVIVEDGGQGGKAAAGIASKVIQTALQK | not soluble
6 | MGSDKIHHHHHHMPCMTLLRRAFAIPLLLMVSSGLALAERPAENQKIALQMYTLRSVSTLDEQFSMAHNAGFKAVELVGTHGISASEMKGLLGKYQLKAIAAHVQLGELKSNMAEVVAFNKAIGNRMIIVPWLNVEDRPNSAEGWQRFGTEMNDLGRELKKQGMQLAYHNHNFEMKKYRGKTALEIMLDAAEPENLMLEMDVAWVSLGGQDPARLLRQYKGRIYSIHAKDNTSIGIRDDEMNFAPPGEGILAWEEILPAAAKAGTQWFVAEHDLPKDPQAIISAAYQSLYEKLSKVKSK | not soluble
7 | QGMRAFLRVVETGNFTRASASLNMPKATVTNLIQGLEAHLRTKLLNRTTRRVLVTPDGALYYERAARLLSDLDELDGSLSTAQSLPKGRLRVETASAFANLVIIPALPEFHKKYPDIQIDLGVSDRTIDYLAENVDCAIRAGTLTDQSLIARRITEMKFVACASRDFLERHPVPQHPSDLEKNCYVVGYFLPKTGQQMPFHFRRGNEEIEVSGRYTMAANESTTYLAAARAGLGVIQAPLFMVREDLRNGTMVPVLPDWQVEPMPIYLVYPPNRHLSSRLRVFADWVVKVMAQSQNGEGS | soluble
8 | FEDVVGQEHITKTLQNALLQKKFSHAYLFSGPRGTGKTSAAKIFAKAVNCEHAPVDEPCNECAACKGITNGSISDVIEIDAASNNGVDEIRDIRDKVKFAPSAVTYKVYIIDEVHMLSIGAFNALLKTLEEPPEHCIFILATTEPHKIPLTIISRCQRFDFKRITSQAIVGRMNKIVDAEQLQVEEGSLEIIASAADGGMRDALSLLDQAISFSGDILKVEDALLITGAVSQLYIGKLAKSLHDKNVSDALETLNELLQQGKDPAKLIEDMIFYFRDMLLYKTAPGLEGVLEKVKVDETFRELSEQIPAQALYEMIDILNKSHQEMKWTNHPRIFFEVAVVKICQTSHQSAADLPEVDMLMKKIQQLEQEVERLKTTGIKAAAESPKKEAPRVPKGGKSNYKAPVGRIHEILKEATRPDLDLLRNSWGKLLAHLKQQNKVSHAALLNDSEPVAAGSAAFVLKFKYEIHCKMVAEDNNGVRTNLEQILESMLGKRMDLIGVPEAQWGKIREEFLEDHQQANEGSNEPAEEDPLIAEAKKLVGADLIEIKD | not soluble
9 | MSRGTQACINAAHTVSGIIGDLDTTIMFATAGTLHSDGDGSFADHREHILQTAKALVEDTKVLVTGAAGTQDQLANAAQNAVSTITQLAEAVKRGACSLGSTQPDSQVMVINAVKDVASALGDLINCTKLASGKSINDPSMQDLKESARVMVLNVSSLLKTVKAVEDEHTRGTRAMEATVEAISQEIRALEHHHHHHHH | soluble
10 | MHRPEAEKWLRRFERAPDARARLVCLPHAGGSASFFFPLAKALAPAVEVLAVQYPGRQDRRHEPPVDSIGGLTNRLLEVLRPFGDRPLALFGHAMGAIIGYELALRMPEAGLPAPVHLFASGRRAPSRYRDDDVRGASDERLVAELRKLGGSDAAMLADPELLAMVLPAIRSDYRAVETYRHEPGRRVDCPVTVFTGDHDPRVSVGEARAWEEHTTGPADLRVLPGGHFFLVDQAAPMIATMTEKLAGPALTGSTGGNSLEHHHHHH | soluble
11 | MKIIAYGARVDEIQYFKQWAKDTGNTLEYHTEFLDENTVEWAKGFDGINSLQTTPYAAGVFEKMHAYGIKFLTIRNVGTDNIDMTAMKQYGIRLSNVPAYSPAAIAEFALTDTLYLLRNMGKVQAQLQAGDYEKAGTFIGKELGQQTVGVMGTGHIGQVAIKLFKGFGAKVIAYDPYPMKGDHPDFDYVSLEDLFKQSDVIDLHVPGIEQNTHIINEAAFNLMKPGAIVINTARPNLIDTQAMLSNLKSGKLAGVGIDTYEYETEDLLNLAKHGSFKDPLWDELLGMPNVVLSPHIAYYTETAVHNMVYFSLQHLVDFLTKGETSTEVTGPAK | soluble
12 | MSLRPEFQGLQGGLFSSVKKADVGTAVLDLMANGVDMLCWADPFFPDPVLPEHISQAVIKSMENGSASHYTMPIGNPELKEKIALKLQRYNNLTVEAQRNILITPGSDSGLLFAMMPFINNDDEVLIHSPSYPSNFLNVELLGGKPISVELKAENNFQIDIKDFENKITEKTKMVILTNPNNPTGTVLRRESLQAIADFIIAHDLILVVDQAFEDAIFDEIEFISIASLPGMWERTVSVFSFSKGMGLSGFRVGYLVADAQIVDVLFGCTVNVVGATNTSSQAGMIAALDEPSFMGEYTQIFERRRKVVFEMMNAIPGVCMVMPESGFLSWIDISKLGTSTFICDYLLQHAHVMVNSGVPYGQGGEGYIRLVHGCYKDDEKLYAVLTRIQQALMQLAKEKGICHGEGHHHHHH | soluble
13 | MYLQPKKVRWRKQRRGTLKGKAFRGNKLAFGEYGIQALDRAWITQQQIEAVRVALVRSLKKGAKVWIRIFPDKPYTKKPNEVRMGGGKGDPEGFVAVVKPGRILFEFTGVPEEVAQEAFTIAASKLPIPVRLVKYGEFTFKYLEHHHHHH | not soluble
14 | MSLSSAPDIILHRGLFTTLDRSNPAASAVAIADGRFVAVGHDHDVMKLAGPSTKIVDLRGRRVLPGLIDNHLHIIRGGLNFNMELRWDGVRSLATAMDMLKRQVAVTPPPQWVRVVGGFTEHQFAEKRLPTIDELNAVAPDTPVFLLHLYDRAILNGAALRAVGYAKDTPEPPGGEIMRDTKGNPTGLLLAKPNANILYATLAKGPKLPFDYQVNSTRHFMRELNRLGVTGAIDAGGGFQNYPDDYAVIQKLSDEGLLTIRLAYNLFTQKPKGEKADFLNWTKTSKYKQGDDYFRHNGAGEMLVFSAADFEDFRVARPDMPAEMEGELEEVVRVLVQNKWPWRLHATYDETISRALDVFERVNQDIPLEGLHWFFDHAETISDQSIDRIAALGGGIAVQHRMAYQGEYFVERYGAGAAEATPPVKKIIDKGVKVSAGTDATRVASYNPWVSLSWLVTGRTVGGLRITPQRNCLDRETALRMWTENVTWFSNEEGNKGRIQVGQLADLVVPDRDYFSCSEAEIADTTSLLTMVGGRIVYGAGDFSKLESVTPPPAMPDWSPVRRFGGYAAWADDTAKTKDTSLAMKAMQMCGCANSCGVHGHDHAAAWSSRLPVSDLRSFWGALGCACWAVEGHHHHHH | not soluble
15 | MKKLIIATVLASISLSASAAETIRFAAEATYPPFEFIDANNKMQGFDIDLANALCKEMQADCTFTNQAFDSLIPSLKFKRFDAVISGMDITPERQKQVAFTQPYYDNSALFIAQKDKVADLAALKGKRVGMQNGSTHQKYLMEKHPEITAVPYDSYQNAILDLKNGRLDAVFGDTAVVNEWLKQNDQLAAVGDKVTDADYFGTGLGIAVRQSNTELQGKLDAALTKVKADGTYQTIYKKWFQQ | not soluble
16 | RADLQYLLNHPDPTEYKEKPLPYPFLTHWLHDIQEQTISKRLDESAGSAGEVSFIFVPCYLNRKDGIFGLGYYDLLIGMDLTVFPSYYEPWGYTPLES | not soluble
17 | MAHHHHHHGAYDVARVRGLHPSLGDGWVHFDAPAGMLIPDSVATTVSTAFRRSGASTVGAHPSARRSAAVLDAAREAVADLVNADPGGVVLGADRAVLLSLLAEASSSRAGLGYEVIVSRLDDEANIAPWLRAAHRYGAKVKWAEVDIETGELPTWQWESLISKSTRLVAVNSASGTLGGVTDLRAMTKLVHDVGALVVVDHSAAAPYRLLDIRETDADVVTVNAHAWGGPPIGAMVFRDPSVMNSFGSVSTNPYATGPARLEIGVHQFGLLAGVVASIEYLAALDESARGSRRERLAVSMQSADAYLNRVFDYLMVSLRSLPLVMLIGRPEAQIPVVSFAVHKVPADRVVQRLADNGILAIANTGSRVLDVLGVNDVGGAVTVGLAHYSTMAEVDQLVRALASLG | soluble
18 | MSGKLTVITGPMYSGKTTELLSFVEIYKLGKKKVAVFKPKIDSRYHSTMIVSHSGNGVEAHVIERPEEMRKYIEEDTRGVFIDEVQFFNPSLFEVVKDLLDRGIDVFCAGLDLTHKQNPFETTALLLSLADTVIKKKAVCHRCGEYNATLTLKVAGGEEEIDVGGQEKYIAVCRDCYNTLKKRV | soluble
19 | MSLSIPFDDSRGPYVLAMDIGSTASRGGLYDASGCPIKGTKQRESHEFTTGEGVSTIDADQVVSEITSVINGILNAADHHNIKDQIAAVALDSFASSLILVDGEGNALTPCITYADSRSAQYVEQLRAEIDEEAYHGRTGVCLHTSYHPSRLLWLKTEFEEEFNKAKYVMTIGEYVYFKLAGITGMATSIAAWSGILDAHTGELDLTILEHIGVDPALFGEIRNPDEPATDAKVVDKKWKHLEEIPWFHAIPDGWPSNIGPGAVDSKTVAVAAATSGAMRVILPSVPEQIPSGLWCYRVSRDQCIVGGALNDVGRAVTWLERTIIKPENLDEVLIREPLEGTPAVLPFFSGERSIGWAASAQATITNIQEQTGPEHLWRGVFEALALSYQRVWEHMGKAGAAPERVIASGRVSTDHPEFLAMLSDALDTPVIPLEMKRATLRGTALIVLEQLEPGGTRATPPFGTTHQPRFAHHYSKARELFDALYLKLVEGHHHHHH | soluble
